Test results published in patent US20250296960A1, “PEPTIDE COMPOSITIONS AND METHODS OF USE THEREOF” (priority 2022, published 2025).
Like-named read-outs stand apart in the source and are kept apart here. Numbered stars: 1 amine (or outer) side, 2 acyl side, 3 side chain; on linkers, the order of the positions; unused ones are H or OH. Square brackets hold non-standard residues; d marks the D form. Primed or numbered codes have the meaning given here. Side chains are listed from the residue outwards. Ends that are not written are not given here. Peptide text beside a SMILES is read from it. * marks the point of attachment. C18 = C18 fatty acid (C16-C22 fatty acids conjugated via γGlu/8-amino-3,6-dioxaoctanoic acid spacers); C18″ = C18 fatty acid moiety (of 2OEG-γGlu-C18, K*); Biotin = O=C1N[C@H]2[C@H](CS[C@H]2CCCCC(=O)*)N1; C18 diacid = O=C(O)CCCCCCCCCCCCCCCCC(=O)*; γGlu = O=C(O)[C@H](CCC(=O)[*:2])N[*:1]; AEEA = NCCOCCOCC(=O)O; Aib = CC(C)(N)C(=O)O

T1: human GIPR (Homo sapiens, UniProt P48546)
T1 construct: host or cells: CHO-K1
T1 sequence (P48546 22-466): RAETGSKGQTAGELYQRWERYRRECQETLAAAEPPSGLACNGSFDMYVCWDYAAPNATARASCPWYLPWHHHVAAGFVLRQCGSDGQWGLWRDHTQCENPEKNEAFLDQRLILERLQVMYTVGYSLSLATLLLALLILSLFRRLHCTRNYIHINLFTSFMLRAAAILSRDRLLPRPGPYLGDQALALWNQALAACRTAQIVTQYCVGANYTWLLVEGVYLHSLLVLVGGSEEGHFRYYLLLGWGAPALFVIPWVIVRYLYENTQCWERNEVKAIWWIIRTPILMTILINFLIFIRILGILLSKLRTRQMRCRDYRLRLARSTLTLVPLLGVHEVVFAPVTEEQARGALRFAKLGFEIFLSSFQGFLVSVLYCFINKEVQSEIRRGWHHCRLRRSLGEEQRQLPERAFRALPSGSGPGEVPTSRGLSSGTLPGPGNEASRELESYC

T2: human glucose-dependent insulinotropic polypeptide receptor (GIPR), expressed on CHO-K1 cells (human, UniProt P48546 22-466)
T2 sequence (looked up): T1 sequence (P48546 22-466)


Experiments:
human GIPR = molecular target: T1, human GIPR; experiment: cAMP assay (HitHunter cAMP) in GIPR-expressing CHO-K1 cells (GIPR+ cells); assay type: cell-based; conditions: Table 31
Summary of the method: (§1)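 Luminescent cAMP read-out: after 30 min peptide stimulation at 37 °C in cAMP assay buffer, receptor-expressing CHO-K1 cells (seeded 7×10^3/well the night before) received antibody and detection reagents for 1 h, then Solution A for 3 h, at room temperature in the dark.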

[1] = In vitro enzymatic stability against FaSSIF/P (pancreatin in FaSSIF, pH 6.5); assay type: in vitro ADME; conditions: simulated gi fluid, pH 6.5, Half-life (min)
Procedure: This study was conducted to determine the enzymatic stability of SEQ ID NOs. 77, 86, 87, 89, 90, and 91 after biotinylation in artificial intestinal environment. The test samples were prepared by mixing stock solutions of peptide and pancreatin dissolved in FaSSIF solution (pH 6.5) in a weight ratio of 25:1. The test samples were incubated at 37° C. for 120 min. The sampling from test samples was proceeded at the predetermined time points (10, 30, 60, and 120 min) and stopped by 10% TFA solution.
Analytical HPLC was performed to determine the remaining amount on an ACQUITY Premier system (Waters, USA) with an ACQUITY CSH C18 column (Waters, USA) at 35° C. using 0.1% TFA in water and acetonitrile. The remaining amount was determined as a percentage of the peak area at the sampling time point relative to the peak area of the initial sample.
For the stability against FaSSIF/P, the test samples were prepared by mixing stock solutions of peptide and pancreatin dissolved in FaSSIF solution (pH 6.5) in a weight ratio of 19:1. The test samples were incubated at 37° C. for 120 min. The sampling from test samples was proceeded at the predetermined time points (10, 30, 60, and 120 min) and stopped by 10% TFA solution.

human GLP-1R = molecular target: T3, human GLP-1R (Homo sapiens, UniProt P43220); experiment: cAMP assay (HitHunter cAMP) in GLP-1R-expressing CHO-K1 cells (GLP-1R+ cells); assay type: cell-based; conditions: Table 31
T3 construct: host or cells: CHO-K1
Summary of the method: as §1

human GCGR = molecular target: T4, human GCGR (Homo sapiens, UniProt P47871); experiment: cAMP assay (HitHunter cAMP) in GCGR-expressing CHO-K1 cells (GCGR+ cells); assay type: cell-based; conditions: Table 31
T4 construct: host or cells: CHO-K1
Summary of the method: as §1

[2] = molecular target: T5, human GLP-1 receptor (GLP-1R), expressed on CHO-K1 cells (human, UniProt P43220 24-463); experiment: cell-based or functional assay
[3] = molecular target: T2, human glucose-dependent insulinotropic …; experiment: cell-based or functional assay
[4] = molecular target: T6, human glucagon receptor (GCGR), expressed on CHO-K1 cells (human, UniProt P47871 26-477); experiment: cell-based or functional assay
[5] = molecular target: T5, human GLP-1 receptor (GLP-1R), …; experiment: cell-based or functional assay; remark: listed apart in the source
[6] = molecular target: T2, human glucose-dependent insulinotropic …; experiment: cell-based or functional assay; remark: listed apart in the source
[7] = molecular target: T6, human glucagon receptor (GCGR), …; experiment: cell-based or functional assay; remark: listed apart in the source
[8] = molecular target: T5, human GLP-1 receptor (GLP-1R), …; experiment: cell-based or functional assay; remark: listed apart in the source
[9] = molecular target: T2, human glucose-dependent insulinotropic …; experiment: cell-based or functional assay; remark: listed apart in the source
[10] = molecular target: T6, human glucagon receptor (GCGR), …; experiment: cell-based or functional assay; remark: listed apart in the source
[11] = molecular target: T5, human GLP-1 receptor (GLP-1R), …; experiment: cell-based or functional assay; remark: listed apart in the source
[12] = molecular target: T2, human glucose-dependent insulinotropic …; experiment: cell-based or functional assay; remark: listed apart in the source
[13] = molecular target: T6, human glucagon receptor (GCGR), …; experiment: cell-based or functional assay; remark: listed apart in the source

T6 sequence (P47871 26-477): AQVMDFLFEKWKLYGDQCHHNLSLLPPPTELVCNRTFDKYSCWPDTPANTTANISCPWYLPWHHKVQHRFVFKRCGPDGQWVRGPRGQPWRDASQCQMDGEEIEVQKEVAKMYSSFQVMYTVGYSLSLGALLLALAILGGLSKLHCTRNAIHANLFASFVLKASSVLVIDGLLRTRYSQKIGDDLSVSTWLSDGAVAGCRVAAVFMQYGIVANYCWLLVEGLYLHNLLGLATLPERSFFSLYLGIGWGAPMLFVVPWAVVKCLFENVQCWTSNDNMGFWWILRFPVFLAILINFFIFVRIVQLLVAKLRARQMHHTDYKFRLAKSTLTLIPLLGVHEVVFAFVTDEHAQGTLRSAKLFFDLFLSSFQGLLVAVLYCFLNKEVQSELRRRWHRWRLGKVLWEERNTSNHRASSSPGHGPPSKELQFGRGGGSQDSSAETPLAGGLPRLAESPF
T4 sequence (P47871 26-477): as above
T3 sequence (P43220 24-463): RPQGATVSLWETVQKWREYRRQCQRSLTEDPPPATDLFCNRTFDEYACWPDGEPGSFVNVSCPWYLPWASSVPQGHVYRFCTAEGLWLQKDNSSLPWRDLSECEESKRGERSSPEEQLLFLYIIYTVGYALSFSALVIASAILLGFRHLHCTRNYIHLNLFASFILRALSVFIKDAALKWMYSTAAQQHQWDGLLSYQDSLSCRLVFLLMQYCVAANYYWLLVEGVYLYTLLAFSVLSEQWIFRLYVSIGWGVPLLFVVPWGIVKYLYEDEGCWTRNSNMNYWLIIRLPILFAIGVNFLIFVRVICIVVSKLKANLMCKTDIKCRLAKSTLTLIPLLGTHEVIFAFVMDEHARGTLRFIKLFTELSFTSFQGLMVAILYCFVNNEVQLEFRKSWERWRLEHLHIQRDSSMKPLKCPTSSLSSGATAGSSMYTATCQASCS

Row | Molecule | Relative % to native ligand [2] [%] | Relative % to native ligand [3] [%] | Relative % to native ligand [4] [%] | Ratio vs. GLP-1R [5] | Ratio vs. GLP-1R [6] | Ratio vs. GLP-1R [7] | Relative % to non-lipidated peptide [8] [%] | Relative % to non-lipidated peptide [9] [%] | Relative % to non-lipidated peptide [10] [%] | further results
1 | CSCC[C@H](NC(=O)[C@H](CCCCNC(=O)CCCC[C@@H]1SC[C@@H]2NC(=O)N[C@@H]21)NC(=O)[C@H](Cc1ccc(O)cc1)NC(=O)[C@H](CC(=O)O)NC(=O)[C@H](CC(C)C)NC(=O)[C@H](CC(C)C)NC(=O)[C@H](CCCCNC(=O)COCCOCCNC(=O)COCCOCCNC(=O)CC[C@H](NC(=O)CCCCCCCCCCCCCCCCC(=O)O)C(=O)O)NC(=O)[C@H](CO)NC(=O)[C@H](Cc1ccc(O)cc1)NC(=O)[C@H](CC(=O)O)NC(=O)[C@H](CO)NC(=O)[C@@H](NC(=O)[C@H](Cc1ccccc1)NC(=O)[C@@H](NC(=O)CNC(=O)[C@H](CCC(N)=O)NC(=O)C(C)(C)NC(=O)[C@@H](N)Cc1ccc(O)cc1)[C@@H](C)O)[C@@H](C)O)C(=O)N[C@@H](CCC(N)=O)C(=O)NC(C)(C)C(=O)N[C@@H](CC(=O)O)C(=O)N[C@@H](Cc1ccccc1)C(=O)N[C@H](C(=O)N[C@@H](CCC(N)=O)C(=O)N[C@@H](Cc1c[nH]c2ccccc12)C(=O)N[C@@H](CC(C)C)C(=O)N[C@@H](CC(C)C)C(=O)N[C@@H](CCC(=O)O)C(=O)NCC(=O)NCC(=O)N1CCC[C@H]1C(=O)N[C@@H](CO)C(=O)N[C@@H](CO)C(=O)NCC(=O)N[C@@H](C)C(=O)N1CCC[C@H]1C(=O)N1CCC[C@H]1C(=O)N1CCC[C@H]1C(=O)N[C@@H](CO)C(N)=O)C(C)C [compound 91] (H-Y[Aib]QGTFTSDYSK([AEEA-AEEA-γGlu-C18 diacid])LLDYK(Biotin)MQ[Aib]DFVQWLLEGGPSSGAPPPS-NH2; N-terminus and C-terminus assumed) | – | – | – | – | – | – | – | – | – | Ratio vs. GLP-1R, GIPR (human GIPR): 970; Relative % to native ligand, GIPR (human GIPR): 184%; half-life [1]: 33.3 min; Ratio vs. GLP-1R, GLP-1R (human GLP-1R): 100; Relative % to native ligand, GLP-1R (human GLP-1R): 19%; Ratio vs. GLP-1R, GCGR (human GCGR): 135; Relative % to native ligand, GCGR (human GCGR): 26%
2 | Y[Aib]QGTFTSDYSK([AEEA-AEEA-γGlu-C18″])YLDYMMARDFVQWLIEGGPSSGAPPPS-NH2 [Peptide No. 5-1D] | 151 | 41 | 55 | 100 | 27 | 36 | 129 | 323 | 1 | –
3 | Y[Aib]QGTFTSDYSKYLDYK([AEEA-AEEA-γGlu-C18″])MARDFVQWLIEGGPSSGAPPPS-NH2 [Peptide No. 5-1F] | 61 | 2 | 5030 | 100 | 3 | 8250 | 52 | 14 | 76 | –
4 | Y[Aib]QGTFTSDYSKLLDYMMQRDFVQWLLEGGPSSGAPPPSC-NH2 [Peptide No. 5-3] | 638 | 7120 | 969 | 100 | 1120 | 152 | 100 | 100 | 100 | –
5 | H[Aib]QGTFTSDYSKLLDYMMQRDFVQWLLEGGPSSGAPPPSC-NH2 [Peptide No. 5-5] | 1690 | 526 | 260 | 100 | 31 | 15 | 100 | 100 | 100 | –
6 | Y[Aib]QGTFTSDYSK([AEEA-AEEA-γGlu-C18])LLDYMMQHDFVQWLLEGGPSSGAPPPS-NH2 [SEQ ID NO. 99] | – | – | – | – | – | – | – | – | – | Ratio vs. GLP-1R [11]: 100; Relative % to native ligand [11]: 35%; Ratio vs. GLP-1R [12]: 3240; Relative % to native ligand [12]: 1130%; Ratio vs. GLP-1R [13]: 80; Relative % to native ligand [13]: 28%
7 | Y[Aib]QGTFTSDK([AEEA-AEEA-γGlu-C18″])SKYLDYMMARDFVQWLIEGGPSSGAPPPS-NH2 [Peptide No. 5-1E] | 57 | 1 | 74 | 100 | 1 | 130 | 48 | 5 | 1 | –
8 | Y[Aib]QGTFTSDYSKYLDYMMQRDFVQWLIEGGPSSGAPPPSC-NH2 [Peptide No. 5-2] | 495 | 738 | 91 | 100 | 149 | 18 | 100 | 100 | 100 | –
9 | Y[Aib]QGTFTSDYSKYLDYMMARDFVQWLIEGGPSSGAPPPSC-NH2 [Peptide No. 5-1] | 117 | 13 | 6650 | 100 | 11 | 5660 | 100 | 100 | 100 | –
10 | Y[Aib]QGTFTSDYSK([AEEA-AEEA-γGlu-C18″])YLDYMMQRDFVQWLIEGGPSSGAPPPS-NH2 [Peptide No. 5-2D] | 174 | 93 | 3 | 100 | 54 | 1 | 35 | 13 | 3 | –
11 | H[Aib]QGTFTSDYSK([AEEA-AEEA-γGlu-C18″])LLDYMMQRDFVQWLLEGGPSSGAPPPS-NH2 [Peptide No. 5-5D] | 305 | 212 | 2 | 100 | 70 | 1 | 18 | 40 | 1 | –
